Source: article PMC6800521 (RNA, 2019)

Target: MBP-Noc1/Noc2 complex (yeast, UniProt Q12176 1-1025; P39744 1-710)
Assay: pull-down

Sequence of MBP-Noc1/Noc2 complex (Q12176 whole entry, chain 1 of 2): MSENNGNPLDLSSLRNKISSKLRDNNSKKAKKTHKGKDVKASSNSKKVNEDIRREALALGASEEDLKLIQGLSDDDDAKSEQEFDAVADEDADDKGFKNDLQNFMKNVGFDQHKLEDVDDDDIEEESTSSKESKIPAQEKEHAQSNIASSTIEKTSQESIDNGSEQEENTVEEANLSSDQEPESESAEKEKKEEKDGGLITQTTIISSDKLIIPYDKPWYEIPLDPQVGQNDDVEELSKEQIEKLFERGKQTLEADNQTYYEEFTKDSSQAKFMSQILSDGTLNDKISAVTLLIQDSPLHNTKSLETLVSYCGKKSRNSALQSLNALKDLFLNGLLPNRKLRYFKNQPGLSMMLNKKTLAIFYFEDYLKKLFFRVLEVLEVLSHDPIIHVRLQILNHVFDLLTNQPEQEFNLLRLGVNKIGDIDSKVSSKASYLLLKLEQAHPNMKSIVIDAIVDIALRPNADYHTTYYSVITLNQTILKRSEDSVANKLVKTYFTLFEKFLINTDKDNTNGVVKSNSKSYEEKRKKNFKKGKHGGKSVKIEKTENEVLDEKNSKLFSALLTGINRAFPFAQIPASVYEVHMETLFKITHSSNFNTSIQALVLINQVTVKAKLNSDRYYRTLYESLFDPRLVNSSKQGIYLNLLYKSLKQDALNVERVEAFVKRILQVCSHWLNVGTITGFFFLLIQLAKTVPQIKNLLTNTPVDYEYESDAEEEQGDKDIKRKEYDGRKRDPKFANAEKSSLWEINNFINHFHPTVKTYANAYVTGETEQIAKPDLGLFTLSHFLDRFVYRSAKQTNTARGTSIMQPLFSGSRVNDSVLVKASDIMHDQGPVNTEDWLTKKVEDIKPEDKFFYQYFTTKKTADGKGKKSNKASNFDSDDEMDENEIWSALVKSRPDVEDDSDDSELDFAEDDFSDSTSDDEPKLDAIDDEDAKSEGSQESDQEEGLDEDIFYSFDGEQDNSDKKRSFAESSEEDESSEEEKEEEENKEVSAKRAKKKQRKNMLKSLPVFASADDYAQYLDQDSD
Sequence of MBP-Noc1/Noc2 complex (P39744 whole entry, chain 2 of 2): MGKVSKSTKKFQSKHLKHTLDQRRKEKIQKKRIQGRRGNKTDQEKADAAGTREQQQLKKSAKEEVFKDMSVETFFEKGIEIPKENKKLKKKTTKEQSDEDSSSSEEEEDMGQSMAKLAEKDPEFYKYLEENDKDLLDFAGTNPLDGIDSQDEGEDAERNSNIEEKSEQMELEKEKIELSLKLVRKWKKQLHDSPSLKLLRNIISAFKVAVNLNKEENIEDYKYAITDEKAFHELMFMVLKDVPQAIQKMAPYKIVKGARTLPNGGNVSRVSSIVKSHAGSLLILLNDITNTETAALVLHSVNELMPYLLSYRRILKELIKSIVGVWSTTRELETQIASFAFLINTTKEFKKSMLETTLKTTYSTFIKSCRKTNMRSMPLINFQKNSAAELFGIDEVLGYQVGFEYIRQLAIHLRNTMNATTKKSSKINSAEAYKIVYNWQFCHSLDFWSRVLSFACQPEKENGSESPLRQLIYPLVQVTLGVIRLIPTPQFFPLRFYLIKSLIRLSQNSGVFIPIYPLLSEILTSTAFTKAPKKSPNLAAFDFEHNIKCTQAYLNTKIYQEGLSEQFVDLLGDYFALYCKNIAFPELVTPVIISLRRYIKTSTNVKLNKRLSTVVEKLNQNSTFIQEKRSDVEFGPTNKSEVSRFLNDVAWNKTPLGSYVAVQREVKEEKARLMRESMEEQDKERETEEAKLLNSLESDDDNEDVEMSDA

binding result: binds
B1: Rrp5 full length (natural protein, yeast, UniProt Q05022 1-1729, looked up)
chain: MVASTKRKRDEDFPLSREDSTKQPSTSSLVRNTEEVSFPRGGASALTPLELKQVANEAASDVLFGNESVKASEPASRPLKKKKTTKKSTSKDSEASSANSDEARAGLIEHVNFKTLKNGSSLLGQISAITKQDLCITFTDGISGYVNLTHISEEFTSILEDLDEDMDSDTDAADEKKSKVEDAEYESSDDEDEKLDKSNELPNLRRYFHIGQWLRCSVIKNTSLEPSTKKSKKKRIELTIEPSSVNIYADEDLVKSTSIQCAVKSIEDHGATLDVGLPGFTGFIAKKDFGNFEKLLPGAVFLGNITKKSDRSIVVNTDFSDKKNKITQISSIDAIIPGQIVDLLCESITKNGIAGKVFGLVSGVVNVSHLRTFSEEDLKHKFVIGSSIRCRIIACLENKSGDKVLILSNLPHILKLEDALRSTEGLDAFPIGYTFESCSIKGRDSEYLYLALDDDRLGKVHSSRVGEIENSENLSSRVLGYSPVDDIYQLSTDPKYLKLKYLRTNDIPIGELLPSCEITSVSSSGIELKIFNGQFKASVPPLHISDTRLVYPERKFKIGSKVKGRVISVNSRGNVHVTLKKSLVNIEDNELPLVSTYENAKNIKEKNEKTLATIQVFKPNGCIISFFGGLSGFLPNSEISEVFVKRPEEHLRLGQTVIVKLLDVDADRRRIIATCKVSNEQAAQQKDTIENIVPGRTIITVHVIEKTKDSVIVEIPDVGLRGVIYVGHLSDSRIEQNRAQLKKLRIGTELTGLVIDKDTRTRVFNMSLKSSLIKDAKKETLPLTYDDVKDLNKDVPMHAYIKSISDKGLFVAFNGKFIGLVLPSYAVDSRDIDISKAFYINQSVTVYLLRTDDKNQKFLLSLKAPKVKEEKKKVESNIEDPVDSSIKSWDDLSIGSIVKAKIKSVKKNQLNVILAANLHGRVDIAEVFDTYEEITDKKQPLSNYKKDDVIKVKIIGNHDVKSHKFLPITHKISKASVLELSMKPSELKSKEVHTKSLEEINIGQELTGFVNNSSGNHLWLTISPVLKARISLLDLADNDSNFSENIESVFPLGSALQVKVASIDREHGFVNAIGKSHVDINMSTIKVGDELPGRVLKIAEKYVLLDLGNKVTGISFITDALNDFSLTLKEAFEDKINNVIPTTVLSVDEQNKKIELSLRPATAKTRSIKSHEDLKQGEIVDGIVKNVNDKGIFVYLSRKVEAFVPVSKLSDSYLKEWKKFYKPMQYVLGKVVTCDEDSRISLTLRESEINGDLKVLKTYSDIKAGDVFEGTIKSVTDFGVFVKLDNTVNVTGLAHITEIADKKPEDLSALFGVGDRVKAIVLKTNPEKKQISLSLKASHFSKEAELASTTTTTTTVDQLEKEDEDEVMADAGFNDSDSESDIGDQNTEVADRKPETSSDGLSLSAGFDWTASILDQAQEEEESDQDQEDFTENKKHKHKRRKENVVQDKTIDINTRAPESVADFERLLIGNPNSSVVWMNYMAFQLQLSEIEKARELAERALKTINFREEAEKLNIWIAMLNLENTFGTEETLEEVFSRACQYMDSYTIHTKLLGIYEISEKFDKAAELFKATAKKFGGEKVSIWVSWGDFLISHNEEQEARTILGNALKALPKRNHIEVVRKFAQLEFAKGDPERGRSLFEGLVADAPKRIDLWNVYVDQEVKAKDKKKVEDLFERIITKKITRKQAKFFFNKWLQFEESEGDEKTIEYVKAKATEYVASHESQKADE
